Measurements reported in publication PMC12802541.

Key:
[1] = target: Rabbit skeletal actin (rabbit) (UniProt P68135); assay: TIRF microscopy; 50 nM phosphorylated NM2 filaments added to anti-parallel actin arrays anchored by their barbed ends on patterned formin; MB150 (150 mM KCl, 5 mM MgCl2, 0.1 mM EGTA, 20 mM MOPS, pH 7.4), 1 mM ATP, 1 mM DTT, 0.6% methylcellulose, 30 °C
[2] = target: Rabbit skeletal actin (rabbit) (UniProt P68135)

Row | dwell time (lifetime of attachment) [1] [min] | fraction of tension sensor modules that are tensed (amplitude of the long lifetime component, global fit of FLIM) on patterned actin bundles [2] [%] | Substance
1 | > 15 | – | Non-muscle myosin 2B, Halo-tagged, phosphorylated, pre-polymerized filaments (from UniProt P35580 1-1976; P60660 1-151; O14950 1-172) (complex)
2 | – | 80 | TsMod NM2A (non-muscle myosin 2A with an embedded FRET-based tension sensor module), RLC phosphorylated (from UniProt P35579 1-1960; P60660 1-151; O14950 1-172) (complex)
